Assay results reported in a protein production outcome set (Wang et al. 2014).

Test: label from the status in PepcDB records
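Also: failed if final PepcDB status was selected cloned or expressed and not failed if soluble or beyond.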

| Sequence | protein production |
| --- | --- |
| MNLNDYKGILVFAEQRDGILQNVGLELLGKATELAYEINKQIALKDAGDELADFAGKKEAAIKSVDVAAATLEEDDQELKNKVADIKKNNPDAAKVTALLVGHNIKNLAQDLIKAGADKVLVVDKPELEVYDTEAYAQVLTATINDQKPEIVLFGATTLGRDLAPRVSSRIATGLTADCTKLELLKDKERQLGMTRPAFGGNLMATIVSPDHRPQMATVRPGVMKKLPKSDDRTGEVVEFPVTLDTSKMKVKLLKVVKEGGNKVDISEAKILVSGGRGVGSKQNFELLEDLATEIGGIVSSSRAQVDAGNMPHDRQVGQTGKTVRPEVYFACGISGAIQHVAGMEESEFIIAINKDRFAPIFSVADLGIVGDLHKILPILTEEIKKYKATK | failed |
| MNIEKTRFCINRKIAPGLSIEAFFRLVKRLEFNKVELRNDMPSGSVTDDLNYNQVRNLAEKYGLEIVTINAVYPFNQLTEEVVKKTEGLLRDAQGVGARALVLCPLNDGTIVPPEVTVEAIKRLSDLFARYDIQGLVEPLGFRVSSLRSAVWAQQLIREAGSPFKVLLDTFHHHLYEEAEKEFASRIDISAIGLVHLSGVEDTRPTEALADEQRIMLSEKDVMQNYQQVQRLENMGYRGIYAFEPFSSQLASWSEAEIEEQINRSVSLLLQ | not failed |
| EIAVPTLFVHGYSGTANSFKGMINRLADDGIVTESLVMTVAADGSVSTTGSYDKFSHNPTIQVIFEDNKSSMVNQTQWIQNVMKELKNNYHIEKVDAVGHSMGGVSLTSYIEKVGSDKAYPVLENLVLIGAPLNGLVVGDNGVTAYDLTDEGPKQSSDRYSEFMKNKQKIPTNLQVLNIAGDMLDGTKSDGSVSVASALSGKFIFEGQAKSYEEKIFTGKKAAHSKLHENTDVDAKVANFLWGTEKVD | failed |
| MDPKSCENSSDVKGQTSDSVSKKVLIEEEEDVKKPQQGKENDSRMAKDVVSCSSNISAHVVHEEVADNVTAVSCNEAESDISKAKAKEFHTIDLSGVGERICRICHFGSDQSPEASGDDKSVSPELIEIGCKCKNELGLAHFHCAEAWFKLRGNR | failed |
| MFLTLSGADMSALIKGSGPHHVVVLNGWFGHAAGWGAFADYLDLGNYTWHFWDYRGYGNRKDDAGEFTLEEISADIVAYIDSIEAEKVSILGHSMGGVFMQKVLADSATPIASLVGISAVAAAGTPFDEDSRKLFTSAGHNPDSRRAIIDFTSGSRQPAAWLDDLTDSTVQNSTPEAVEKYFFAWADCNFAADLGTQDLPVYILTGDLDPAVTKTAVESAFGPIYQNLTVEELHDVGHYAIFEHPLGLAARVLRFLDAV | failed |
| MSKAQKRKRLNKYDGESKTPANKSTVDGGNPYPTLLRPTAEECRDVRDALLSLHGFPPEFANYRRQRLRSFSAVDDHDTQCNLKSETLNETEEESVLDGLVKILLSQNTTESNSQRAFASLKATFPKWDDVLNAESKSIENAIRCGGLAPKKAVCIKNILNRLQNERGRLCLEYLRGLSVEEVKTELSHFKGVGPKTVSCVLMFNLQHNDFPVDTHVFEIAKALGWVPKTADRNKTYVHLNRKIPDELKFDLNCLLYTHGKICSNCKKNVAKPKAKVASPDDCPLVGFYDLIV | failed |
| MSAVVAQTLHVFGLRSHVANNIFYFDEQIIIFPSGNHCVKYNVDQKWQKFIPGSEKSQGMLALSISPNRRYLAISETVQEKPAITIYELSSIPCRKRKVLNNFDFQVQKFISMAFSPDSKYLLAQTSPPESNLVYWLWEKQKVMAIVRIDTQNNPVYQVSFSPQDNTQVCVTGNGMFKLLRFAEGTLKQTSFQRGEPQNYLAHTWVADDKIVVGTDTGKLFLFESGDQRWETSIMVKEPTNGSKSLDVIQESESLIEFPPVSSPLPSYEQMVAASSHSQMSMPQVFAIAAYSKGFACSAGPGRVLLFEKMEEKDFYRESREIRIPVDPQSNDPSQSDKQDVLCLCFSPSEETLVASTSKNQLYSITMSLTEISKGEPAHFEYLMYPLHSAPITGLATCIRKPLIATCSLDRSIRLWNYETNTLELFKEYQEEAYSISLHPSGHFIVVGFADKLRLMNLLIDDIRSFKEYSVRGCGECSFSNGGHLFAAVNGNVIHVYTTTSLENISSLKGHTGKIRSIVWNADDSKLISGGTDGAVYEWNLSTGKRETECVLKSCSYNCVTVSPDAKIIFAVGSDHTLKEIADSLILREISAFDVTYTAIVISHSGRMMFVGTSVGTIRAMKYPLPLQKEFNEYQAHAGPITKVSRTLSPGTQSHTCLLRALFIPSTSQCLFSLLLLSYLFIHHSLNHHLLTMNILFV | failed |
| MKKDVLIFVKGTQEYPINSLENSIEFFTEGTFYKKGESFYVTYKESELTGLEGTTTTFKIQPNHITLIRYGDVTSTLIFEPGKRHISTYITEEGVIMIGVYTKKMKVDLTENGGEVFVEYAIDLDSHMMSENDFLLKIKEAGVKNLEHHHHHH | not failed |
| MAKYVVTSAWPYVNHVPHLGTLIGSVLSADIYARYLRLRGRQVVFVSGSDEHGTPIELEARKKGVHPKELTDQVHEYDVKMWREYRISFDNYSRTESPVHKEFVMEFMKKLEENGYIFSQEEVLPYCERDKIFLPDRFVEGTCPYCGYEKARGDQCDECGRLLHPTELKNPRCALCGSKPVYKSTRHWFIDLRRVQDRLLKWLESHGELQDSVKKYSINWVAQGLKPRSVTRDLSWGVPAPFKGAEGKTIYVWFDALLGYVSATKELFIMRRGDPEEWKSWWWDSGTRTVYFIGKDNIPFHAIILPALFLASHDPYVLPWRISATEYLMYEGQQFSKSRRIGVWIDEALEIAPADYWRWALARMRPEARDTNFTWKEFYRIVNTELNDDIGNFVNRVLSLVRSRMSGVAPEPEDLGEHQGFVERVRRAAWAVAEDLEAIRIKRATEGILEIAREGNAYLNRTQPWKLLSQDREEGVRALSAALYAVKTLAHLLAPFTPDAADRLWSMLGLAGSVHEAVWDEWLDRPLPGGARIVRVEPLFQKLPDDFLERVDEIVEDARRRAREKRPPLLRD | failed |
| MFGMTLVNIFVPKLNLYHFVVGVIYLFPMIVIGFKIVKNRNITGLPLFICSGIVGVWAILLHMKMNLGHDYEFFSGPIQETVMLILLLVAVPLSYYVFACSVGCKDTRNMKALKIFPVVAFFIIVITEILGISYYGMANYVLLFSFLLLIGPLLGGLYIWEIMSNIQFKNYTT | failed |
| MSDCLFDLHIGYVRFKNPIALAPMAGIVDSAFANQYASNAGLVILGAFNLDKASIAVASALVARGRKEFISDEPMEFMKKEIRAVTSGSAVAVNVRSTTLEPLIEAAKIVKEEGAILELNAHCRQPEMLEAGLGEALLHDLPKLSAWIRAIKETGVVLSVKVRANVVNDIELARLIDKAGADIIHVDAEMEGFGADLDAILNYRDATRLFLIGNNSVKDFEAAKEMFTRGADMVSAARGVLENSGLIQELVENVTSYQQSIGWYNAPKHVCSEGDFRGLAFCCLPVKPCPVHEKFQKLGYTAEEFARTKLDFAKGTMLEYGEDTCFGSLVWCCKITKPCWIRDGVLNTIGLSDTEYMKLKKQLAEYVLDHARIPVNESQ | failed |
| MWARTAAWVFGLPETLREICYRRDNVKPVDELQKTIGHRFGDMELLLTAMTHSSWANEQAVPVEHNERLEFLGDAVLELCVSEELFRRFPSAREGDLTRMRSRLVSKPSLEGVARELRLDMSLRLGKGEESQGGRERGSLLSDALEAMLGAVFLDAGYIAAKGVVMRILGPHFPEALVPVRTKDYKSQLQELTQKLFRDRPVYTLLGSSGPEHDKQFDVRVVLPDGTVFEATGPSMKRAEQMAAARAVATLDK | failed |
| MALIEGFRVRNYRALRDITLGRLSAEQQGDPLTPFTVVIGKNGVGKSTLFDAFGFVADCLSKDVESACDDKQRGGFERMRSLGTEESIRFDIYYREAKGERPITYELAINLDSSGRPFVESEVLKQRRKGQKHGRPYPFLRLHHGVGKVWAGEEAVETSSGEEDRAQEDVELTDLRQLGIATLGTLKEHPRIKRFRDFLKGWHLSYFHPDSARSIPSAGAQRHLDVHGENIGNVVQYMEREHKERFKTILDRIAAKIPGVHSIRTTVTQDKRVLLQFNDGAFNDPFYAGQMSDGTLKIFAYLLLMEDPEPPPFICIEEPENGLYHRLLDSLASELRSHATGKKNAPQIFVTTHQPYFVDALSTKEVWILEKGKNGFSTICRASDIDLVRNLVEEGLPLGGLWYGDYLDTK | failed |
| MFIKVKLPWDVTIPAEDMDTGLMLQRAIVIRLLEAFSKEKATKDLGYLITPTILENIGEGKIKEQTGEIQFPVVFNGICFKMFKGEIVHGVVHKVHKTGVFLKSGPYEIIYLSHMKMPGYEFIPGENPFFMNQYMSRIQIGARVRFVVLDTEWREAEKDFMALASIDGDNLGPF | failed |
| MYKLDHLNHNTLDESSLELHETPKGYTNVALFGLDSRDGELSGGVRSDSIMIVSINNKTGDVKIISVYRDTLLKQQDGSYEKANAAYSFGGPQEAVAMLNRNLDLDITKYASVNFNSLADIIDILGGVEVELTSEEIFWLNGYTAETSQVVGRQTHTLDENSPGVHNLDGIQAVSYTRIRYTAGDDFKRAERQRIILQKMIQKLKTAGPVKWNKILDQVLPEISTNMTTPDIMKLGLNIFRYKIGETKGFPFDITTSENVIGLEGSYAVAIGHADNVRQLHEQLFGETGYQPSDEVQQISQDVAYLTGVLEHHHHHH | not failed |
| MDRIQEMTLFAALAGQTSFTGVARHVGLSTATVTRAVASLESRLGILLVVRTTRNMRLTKAGQRFAEDCRRLLADLSEAENAAAGVHALPAGTLTVTAPQMFGALHVTPVLTRFLSEYPAVDIRAILVDRVVSMLDEGVDVAVRIGALRDSSLTAIRVGSVRRMVCASPVYLTQHGTPRHPDDLQQHATISTSAPERPPHWAFRVDDQDYSVNVASRLSLTSFQASINAALQHWGLTQVPHYQIREHLHNGRLVCVLEDFEIAPEPVHVVYSEGRRGSSRVRSFVDFCVSALREDLQFEAAG | failed |
| MYSPIPPSLFQQIQPAYCGQEFILLRDNEEYKEIIVQAGRTYEISLMVESENSYIAWDFSLTQGKITMVIIFKTKYVTVNHLIAFSDD | failed |
| MEQGAATADKEDFNARGKPTLFQLSFPLLLHSLLSFFVNLADTAIISAYSAEAAAAVAVAKQVMMIAFELSGLVGIGAVIVISRHLGRGEVEAARQVVAVALLTNTLVGLALGLSLMVAGPLVLEQLAGSTSLNDEAGLYLNIVAVGMVFNGFIAAGLACLRAFGHSRLILAFGVGVSAFYLLAEWVLILGVGPLPGMGVKGAALGTFSIRVMTTAILTPVLMWKLGLRFSFSDTVARFATARRMIAIALPSVTDYIAYSFYQIILLGLVARFGVEAVLGRTYTMLAMAFLIVVVMAISQSNEVLIGYRFGERRLEAATSQALRSASLAAAATTSIATLIWLASVPYIRLFTDNPAVIELCGSLLFLTIFIQPGFAFNTILFQSLRAVGDVRWPVFVSLTVTWGLGLSTAWFFCLFLNLGVTGVWLSLIIEETVKGSLFLHRWLSRGVRHEAG | failed |
| MRIYLIGFMCSGKSTVGSLLSRSLNIPFYDVDEEVQKREGLSIPQIFEKKGEAYFRKLEFEVLKDLSEKENVVISTGGGLGANEEALNFMKSRGTTVFIDIPFEVFLERCKDSKERPLLKRPLDEIKNLFEERRKIYSKADIKVKGEKPPEEVVKEILLSLEGNALGG | not failed |
| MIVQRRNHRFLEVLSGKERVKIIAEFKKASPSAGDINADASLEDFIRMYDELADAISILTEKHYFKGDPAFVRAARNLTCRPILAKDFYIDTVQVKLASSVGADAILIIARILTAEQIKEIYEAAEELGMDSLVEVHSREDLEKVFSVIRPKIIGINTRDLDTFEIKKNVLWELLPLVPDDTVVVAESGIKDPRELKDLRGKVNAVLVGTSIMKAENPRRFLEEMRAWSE | not failed |
